Consider two molecules from patent US20110135636A1 (SYMPHOGEN A S, published 2011).

Test [1] has as its target T1, recombinant human EGFR extracellular domain with 6xHis (human, UniProt P00533 25-645).
T1 construct: In-house produced; also called 6xHis EGFR ECD; soluble human EGFR ECD; not shown: 6xHis tag
The test is described as follows: SPR (BIAcore 2000); IgG captured on anti-human Fc, soluble EGFR ECD injected; Scatchard analysis. As to the method:
Kinetic analysis of the full length IgG antibodies of the invention was performed on a BIAcore 2000, employing an assay as described in (Canziani, Klakamp, et al. 2004, Anal. Biochem, 325:301-307) allowing measurement of monovalent affinities of whole IgG molecules against soluble antigen. […] The chip surface was regenerated in between cycles by stripping the captured antibody/antigen complexes with a 10 second injection of 100 mM H₃PO₄. […] The association rate constant (ka) and dissociation constant (kd) were evaluated globally from the generated sensograms with the BIA evaluation software 4.1 provided by the manufacturer.

Test [2] addresses T2, Cynomolgus EGFR extracellular domain (Cynomolgus monkey (Macaca fascicularis), UniProt P55245 25-645 (rhesus entry)).
T2 construct: Cloned without signal peptide; also called Cynomolgus rEGFR ECD; Cynomolgus EGFR ECD
The test is described as follows: ELISA on coated Cynomolgus rEGFR ECD. As to the method:
To verify that tested Anti-EGFR antibodies bound equally well to both Human and Cynomolgus EGFR ECD and accordingly warranting toxicology studies in Cynomolgus monkeys, serial four fold dilutions of antibodies beginning from 1 μg/ml were tested by ELISA for binding to recombinant Human and Cynomolgus EGFR ECD proteins. […] ELISA wells were coated with 50 μl/well of full length EGFR at a concentration of 1 μg/ml in PBS overnight at 4° C. The next morning wells were washed twice with PBS-T and blocked for one hour with 100 μl PBS-T-1% BSA at room temperature, followed by wash twice in PBS-T. Next 50 μl of serially diluted Anti-EGFR antibodies and control antibodies were added to wells and incubated for one hour at room temperature. After antibody incubation wells were washed five times with PBS-T, followed by incubation with 50 μl/well Streptavidin-HRP secondary reagent diluted 1:3000 in blocking buffer and incubation at room temperature for 30 min. Finally wells were washed five times with PBS-T and plates were developed by adding 50 μL/well TMB substrate and incubated at room temperature. After incubation the reaction was stopped by addition of 1 M H₂SO₄; 100 μl/well and plates were read at OD 450 nm.
In general terms: An ELISA detects its analyte on a solid surface through an enzyme-linked reagent.

As usually defined, the Kd is the concentration at which binding is half-saturated.

B1: antibody 992 (antibody, human IgG1, kappa, V domains shown)
VH: EVQLQQPGSELVRPGASVKLSCKASGYTFTSYWMHWVKQRPGQGLEWIGNIYPGSRSTNYDEKFKSKATLTVDTSSSTAYMQLSSLTSEDSAVYYCTRNGDYYVSSGDAMDYWGQGTSVTVSS
VL: DIQMTQTTSSLSASLGDRVTISCRTSQDIGNYLNWYQQKPDGTVKLLIYYTSRLHSGVPSRFSGSGSGTDFSLTINNVEQEDVATYFCQHYNTVPPTFGGGTKLEIKR
notes: Chimeric mouse/human IgG1 kappa; the VL entry includes the human kappa constant region
For the molecule B1, the Kd in test [1] is 170 nM.

B2: antibody 1208 (antibody, human IgG1, kappa, V domains shown)
VH: EVQLVESGGGLVKPGGSLKLSCAASGFAFSSYDMSWVRQTPEKRLEWVAYIGSGDDNTHYPDSVKGRFTISRHNAKNTLYLQMSSLKSEDTAMYYCARQKYGNYGDTMDYWGQGTSVTVSS
VL: DVVMTQTPLSLPVSLGDQASISCRSSQSLVHSNGNTYLHWYLQKPGQSPKLLIYKVSNRFSGVPDRFSGSGSGTDFTLKISRVEAEDLGVYFCSQSTHVPTFGGGTKLEIKR
notes: Chimeric IgG1 kappa; also called clone 1208
B2: in test [2], the binding result is on record as “binds”.
